{"source": "paper doi:10.1101/2021.03.28.437436", "key": {"[1]": {"target": "N-terminal 6xHis-tag derivative of human α-synuclein (6xHis-αSyn) (human) (UniProt P37840)", "experiment": "SPR"}, "[2]": {"target": "Nα-fluoresceinated hirugen, [F]-hirugen", "experiment": "other fluorescence titration"}, "[3]": {"target": "Recombinant catalytically inactive S195A thrombin mutant (UniProt P00734)", "experiment": "other fluorescence titration"}, "[4]": {"target": "Human plasma α-thrombin (αT) (human)", "experiment": "other fluorescence titration"}}, "note": "Square brackets hold non-standard residues; d marks the D form. Ends that are not written are not given here. pY = N[C@@H](Cc1ccc(OP(=O)(O)O)cc1)C(=O)O"}
{"molecule": "Recombinant catalytically inactive S195A thrombin mutant (from UniProt P00734) (enzyme)", "values": [{"measurement": "Kd", "setting": "[1]", "value": 44, "unit": "nM"}, {"measurement": "Kd", "setting": "[2]", "value": 30, "unit": "nM"}]}
{"molecule": "Hirugen (C-terminal peptide 54-65 of hirudin HV1)", "values": [{"measurement": "increase of [F]-hirugen fluorescence on displacement", "setting": "[3]", "value": 65, "unit": "%"}]}
{"molecule": "βT-thrombin (βTT) (enzyme)", "values": [{"measurement": "fold decrease in affinity against S195A", "setting": "[1]", "value": 1.5, "unit": "fold"}]}
{"molecule": "VRPEHPAETE[pY]DSL[pY]PEDDL", "note": "[Fibrinogen γ’-peptide (C-terminal peptide 408-427 of fibrinogen elongated γ-chain splice variant)]", "values": [{"measurement": "fold decrease in affinity with 20 μM αSyn against no αSyn", "setting": "[4]", "value": 3, "unit": "fold"}]}
